Test results reported in patent publication US20260265321A1, “PEPTIDE AND POLYPEPTIDE INHIBITING THE NF-KB SIGNALING PATHWAY” (Centre National de la Recherche Scientifique, priority 2023, published 2026).

B1: 39-852 (other)
chain: YLVIVEQPKQRGFRFRYGCEGPSHGGLPGASSEKGRKTYPTVKICNYEGPAKIEVDLVTHSDPPRAHAHSLVGKQCSELGICAVSVGPKDMTAQFNNLGVLHVTKKNMMGTMIQKLQRQRLRSRPQGLTEAEQRELEQEAKELKKVMDLSIVRLRFSAFLRASDGSFSLPLKPVISQPIHDSKSPGASNLKISRMDKTAGSVRGGDEVYLLCDKVQKDDIEVRFYEDDENGWQAFGDFSPTDVHKQYAIVFRTPPYHKMKIERPVTVFLQLKRKRGGDVSDSKQFTYYPLVEDKEEVQRKRRKALPTFSQPFGGGSHMGGGSGGAAGGYGGAGGGGSLGFFPSSLAYSPYQSGAGPMGCYPGGGGGAQMAATVPSRDSGEEAAEPSAPSRTPQCEPQAPEMLQRAREYNARLFGLAQRSARALLDYGVTADARALLAGQRHLLTAQDENGDTPLHLAIIHGQTSVIEQIVYVIHHAQDLGVVNLTNHLHQTPLHLAVITGQTSVVSFLLRVGADPALLDRHGDSAMHLALRAGAGAPELLRALLQSGAPAVPQLLHMPDFEGLYPVHLAVRARSPECLDLLVDSGAEVEATERQGGRTALHLATEMEELGLVTHLVTKLRANVNARTFAGNTPLHLAAGLGYPTLTRLLLKAGADIHAENEEPLCPLPSPPTSDSDSDSEGPEKDTRSSFRGHTPLDLTCSTKVKTLLLNAAQNTMEPPLTPPSPAGPGLSLGDTALQNLEQLLDGPEAQGSWAELAERLGLRSLVDTYRQTTSPSGSLLRSYELAGGDLAGLLEALSDMGLEEGVRLLRGPET
notes: also called G2-p100 39-852; not shown: N-terminal Gluc2 fragment of Gaussia princeps luciferase and the flexible 20 amino acid linker (pSPICA-N2)
B2: G2-IκBα FL (other, UniProt P25963 1-317, looked up)
chain: MFQAAERPQEWAMEGPRDGLKKERLLDDRHDSGLDSMKDEEYEQMVKELQEIRLEPQEVPRGSEPWKQQLTEDGDSFLHLAIIHEEKALTMEVIRQVKGDLAFLNFQNNLQQTPLHLAVITNQPEIAEALLGAGCDPELRDFRGNTPLHLACEQGCLASVGVLTQSCTTPHLHSILKATNYNGHTCLHLASIHGYLGIVELLVSLGADVNAQEPCNGRTALHLAVDLQNPDLVSLLLKCGADVNRVTYQGYSPYQLTWGRPSTRIQQQLGQLTLENLQMLPESEDEESYDTESEFTEFTEDELPYDDCVFGGQRLTL
notes: range 1-317; Expressed in HEK293T cells for GPCA; also called full-length IκBα; not shown: Gluc2 fragment of Gaussia princeps luciferase and flexible 20 amino acid linker, N-terminal
B3: 73-288 (other)
chain: DGDSFLHLAIIHEEKALTMEVIRQVKGDLAFLNFQNNLQQTPLHLAVITNQPEIAEALLGAGCDPELRDFRGNTPLHLACEQGCLASVGVLTQSCTTPHLHSILKATNYNGHTCLHLASIHGYLGIVELLVSLGADVNAQEPCNGRTALHLAVDLQNPDLVSLLLKCGADVNRVTYQGYSPYQLTWGRPSTRIQQQLGQLTLENLQMLPESEDEES
notes: also called G2-IκBα 73-288; IκBα(73-288); not shown: N-terminal Gluc2 fragment of Gaussia princeps luciferase and the flexible 20 amino acid linker (pSPICA-N2)
B4: 73-317 YD/SS (other)
chain: DGDSFLHLAIIHEEKALTMEVIRQVKGDLAFLNFQNNLQQTPLHLAVITNQPEIAEALLGAGCDPELRDFRGNTPLHLACEQGCLASVGVLTQSCTTPHLHSILKATNYNGHTCLHLASIHGYLGIVELLVSLGADVNAQEPCNGRTALHLAVDLQNPDLVSLLLKCGADVNRVTYQGYSPYQLTWGRPSTRIQQQLGQLTLENLQMLPESEDEESYDTESEFTEFTEDELPSDSCVFGGQRLTL
notes: also called G2-IκBα 73-317 YD/SS; G2-IκBα(73-317) Y305S/D307S; not shown: N-terminal Gluc2 fragment of Gaussia princeps luciferase and the flexible 20 amino acid linker (pSPICA-N2)

Tests used:
[1] = target: T1, 6×His-IKKβ(1-669) EE (Homo sapiens, UniProt O14920, S177E/S181E); experiment: MBP-pulldown of recombinant IKKβ by MBP-peptide fusions; assay type: binding; conditions: 0.3 μM IKKβ, Western blot
T1 construct: a nearly full-length (residues 1-669) and constitutively active (S177E/S181E) mutant construct of human IKKβ; made in house; host or cells: Sf21 insect cells (baculovirus)
T1 sequence (O14920 1-669 S177E/S181E): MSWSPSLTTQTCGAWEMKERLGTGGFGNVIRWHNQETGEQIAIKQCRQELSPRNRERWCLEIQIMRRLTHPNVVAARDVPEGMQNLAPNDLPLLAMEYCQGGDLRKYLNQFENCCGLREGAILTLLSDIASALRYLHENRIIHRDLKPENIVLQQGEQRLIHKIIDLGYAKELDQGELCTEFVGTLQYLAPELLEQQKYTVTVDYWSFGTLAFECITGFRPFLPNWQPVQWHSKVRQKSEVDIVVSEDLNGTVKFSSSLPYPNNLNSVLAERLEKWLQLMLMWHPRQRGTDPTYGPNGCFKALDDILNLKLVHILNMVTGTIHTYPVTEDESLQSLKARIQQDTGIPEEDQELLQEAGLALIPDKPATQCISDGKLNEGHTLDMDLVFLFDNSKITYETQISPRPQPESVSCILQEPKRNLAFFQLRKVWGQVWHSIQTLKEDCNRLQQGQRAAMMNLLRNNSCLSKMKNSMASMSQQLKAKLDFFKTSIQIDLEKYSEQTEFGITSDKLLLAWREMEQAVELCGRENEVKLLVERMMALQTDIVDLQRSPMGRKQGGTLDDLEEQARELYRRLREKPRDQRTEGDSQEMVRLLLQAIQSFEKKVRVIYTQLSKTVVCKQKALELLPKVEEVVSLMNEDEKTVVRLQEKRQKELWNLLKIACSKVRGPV
Description: Experiments were performed in PD buffer (20 mM Tris pH 8.0, 150 mM NaCl, 2 mM DTT). For each experiment, 10 μl of amylose resin (dry bead volume) coupled to MBP-fusion constructs were incubated with […] of purified 6×His-IKKα(10-667) EE and 6×His-IKKβ (1-669) EE constructs adjusted at a concentration of 0.3 μM for 2 hours at 4° C. After two quick washing steps with PD buffer, complexes were eluted by incubation with 20 μl of the same buffer supplemented with 20 mM maltose for 15 minutes at 4° C. After mild centrifugation, supernatants were recovered and migrated onto two separate 10% SDS-PAGE gels. One gel was used for Western blot analysis to detect His-IKKα or His-IKKβ using and anti-6×His antibody (Sigma, #SAB4301134), the other for Coomassie staining to detect MBP-fusion proteins. Quantification of band intensity was done using the Image J software.

[2] = target: T2, G1-IKKα, full-length wt IKKα fused to the Gluc1 fragment (human, UniProt O15111 1-745); experiment: GPCA (Gaussia princeps protein complementation assay), G1-IKKα FL with G2-p100 constructs, NLR
T2 construct: Expressed in HEK293T cells for GPCA; full-length; also called Gluc1-IKKα; not shown: Gluc1 fragment of Gaussia princeps luciferase and flexible 20 amino acid linker, N-terminal
T2 sequence (looked up): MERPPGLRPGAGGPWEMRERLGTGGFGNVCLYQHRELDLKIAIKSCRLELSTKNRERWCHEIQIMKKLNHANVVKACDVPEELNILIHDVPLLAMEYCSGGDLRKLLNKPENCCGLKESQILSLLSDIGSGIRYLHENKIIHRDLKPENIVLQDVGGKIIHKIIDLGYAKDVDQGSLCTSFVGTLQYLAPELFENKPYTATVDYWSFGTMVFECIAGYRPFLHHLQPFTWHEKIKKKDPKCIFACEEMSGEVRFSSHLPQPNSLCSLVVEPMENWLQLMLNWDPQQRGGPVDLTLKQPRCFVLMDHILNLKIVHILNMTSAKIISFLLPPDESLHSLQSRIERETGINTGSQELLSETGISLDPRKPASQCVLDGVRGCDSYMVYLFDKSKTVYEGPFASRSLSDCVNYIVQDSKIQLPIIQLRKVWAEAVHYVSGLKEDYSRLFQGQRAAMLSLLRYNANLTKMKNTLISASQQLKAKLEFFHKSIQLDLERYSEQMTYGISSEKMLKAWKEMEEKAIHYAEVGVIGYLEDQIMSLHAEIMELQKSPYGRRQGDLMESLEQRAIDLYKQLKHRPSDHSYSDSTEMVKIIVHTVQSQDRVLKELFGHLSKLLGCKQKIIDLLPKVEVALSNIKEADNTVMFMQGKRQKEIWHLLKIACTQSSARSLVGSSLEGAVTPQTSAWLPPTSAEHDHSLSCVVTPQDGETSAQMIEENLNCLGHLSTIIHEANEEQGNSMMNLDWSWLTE
Description: (§1) HEK293T cells were transfected using the reverse transfection method. Transfection mixes containing 100 ng of pSPICA-N2 and 100 ng of pSPICA-N1 plasmids expressing test proteins plus JetPEI® (Polyplus transfection) were dispensed in white 96-well plates. HEK293T cells were then seeded on the DNA mixes at a concentration of 4.2×10^4 cells per well. 48 hours after transfection, cells were washed with 50 μl of PBS and lysed with 40 μl of Renilla lysis buffer (Promega, E2820) for 30 minutes with agitation. Gaussia princeps luciferase enzymatic activity was measured using a Berthold Centro LB960 luminometer by injecting 50 μl per well of luciferase substrate reagent (Promega, E2820) and counting luminescence for 10 seconds. Results are expressed as a fold change normalized over the sum of controls, specified herein as normalized luminescence ratio (NLR) 29. For a given protein pair A/B, NLR=(Gluc1-A+Gluc2-B)/[(Gluc1-A+Gluc2)+(Gluc1+Gluc2-B)]. All interactions were measured in three independent experiments, with each experiment being carried out in triplicate. The expression levels of Gluc1- and Gluc2-fused proteins were checked by Western blotting. 24 hours post-transfection, HEK293T cells were collected, lysed by incubation on ice and centrifuged. Aliquots of cleared supernatants were loaded onto an 10% SDS-PAGE gel.

[3] = target: T2, G1-IKKα, full-length wt IKKα fused to …; experiment: GPCA (Gaussia princeps protein complementation assay) in HEK293T cells, NLR, mean ± SD of triplicates
Description: as §1

[4] = target: T3, G1-IKKβ, full-length wt IKKβ fused to the Gluc1 fragment (human, UniProt O14920 1-756); experiment: as above
T3 construct: Expressed in HEK293T cells for GPCA; full-length; also called Gluc1-IKKβ; not shown: Gluc1 fragment of Gaussia princeps luciferase and flexible 20 amino acid linker, N-terminal
T3 sequence (looked up): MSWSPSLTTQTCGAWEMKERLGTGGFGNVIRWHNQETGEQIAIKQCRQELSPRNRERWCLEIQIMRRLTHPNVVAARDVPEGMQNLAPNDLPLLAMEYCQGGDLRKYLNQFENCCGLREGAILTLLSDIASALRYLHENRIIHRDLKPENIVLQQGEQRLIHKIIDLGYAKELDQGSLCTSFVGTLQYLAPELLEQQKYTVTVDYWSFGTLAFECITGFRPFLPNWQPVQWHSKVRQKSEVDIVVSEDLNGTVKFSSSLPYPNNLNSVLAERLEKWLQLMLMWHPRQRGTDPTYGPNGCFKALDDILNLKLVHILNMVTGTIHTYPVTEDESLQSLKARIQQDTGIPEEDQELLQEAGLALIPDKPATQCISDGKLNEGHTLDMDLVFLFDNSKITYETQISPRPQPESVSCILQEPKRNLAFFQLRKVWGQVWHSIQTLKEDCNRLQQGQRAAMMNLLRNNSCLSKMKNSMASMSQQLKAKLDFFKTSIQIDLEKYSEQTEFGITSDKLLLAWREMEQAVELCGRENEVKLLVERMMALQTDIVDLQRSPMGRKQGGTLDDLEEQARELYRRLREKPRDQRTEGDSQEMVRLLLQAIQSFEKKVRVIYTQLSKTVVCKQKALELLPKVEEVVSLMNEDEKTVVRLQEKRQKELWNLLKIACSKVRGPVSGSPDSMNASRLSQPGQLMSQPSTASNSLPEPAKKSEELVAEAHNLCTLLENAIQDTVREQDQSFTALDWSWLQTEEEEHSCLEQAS
Description: as §1

Row | Molecule | interaction with IKKβ by pulldown [1] | binding result [2] | binding result [3] | binding result [4]
1 | DELPYDDCVFGGQRLTL [IκBα pep(s), 17 amino acid peptide from the IκBα C-terminus (residues 301-317)] | necessary and sufficient to interact with IKKβ |  |  | 
2 | EFTEDELPYDDFVFGGQRLTL [C308F IκBα pep, IκBα pep with C308F substitution] | clearly enhance binding to IKKβ |  |  | 
3 | B1 |  | binds |  | 
4 | B2 |  |  | binds | binds
5 | B3 |  |  | binds | binds
6 | B4 |  |  | binds | binds
